Biological target: T1, TYRO3-Fc (ACRO Biosystems) (UniProt Q06418 41-428, limits assumed)
T1 construct: Bought reagent; also called TRYO3; not shown: Fc part
T1 sequence (looked up): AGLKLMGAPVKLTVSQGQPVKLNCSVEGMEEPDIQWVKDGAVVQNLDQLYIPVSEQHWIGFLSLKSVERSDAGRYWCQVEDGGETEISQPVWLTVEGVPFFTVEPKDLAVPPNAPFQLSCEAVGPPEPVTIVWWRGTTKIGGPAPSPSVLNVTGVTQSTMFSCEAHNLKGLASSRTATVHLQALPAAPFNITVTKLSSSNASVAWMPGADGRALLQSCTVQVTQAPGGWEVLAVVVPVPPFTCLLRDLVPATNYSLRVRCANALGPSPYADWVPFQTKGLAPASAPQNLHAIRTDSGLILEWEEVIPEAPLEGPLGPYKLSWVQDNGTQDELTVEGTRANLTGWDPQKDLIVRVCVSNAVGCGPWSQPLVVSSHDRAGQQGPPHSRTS
Experiment: ELISA, TYRO3-Fc coated at 1 µg/ml, anti-human IgG Fab-HRP, OD450
Method: TYRO3-Fc (ACRO Biosystems), MER-His (ACRO Biosystems), and AXL-His (Sino Biological Inc.) each were coated at 1 μg/ml on an ELISA strip, which was held at 4° C. overnight. After the ELISA strips were washed with PBST, 10% fetal bovine serum was added to the ELISA strip, which was blocked for 1 hour at 37° C. Antibodies […], 6G12M21, 6G12M31 and 6G12M41 were added to react at 37° C. for 1 hour. After the ELISA strips were washed with PBST, horseradish peroxidase-labeled goat anti-human IgG Fab secondary antibodies (Goat Anti-Human IgG (Fab′)₂ (HRP), Abcam) were added to react for 30 minutes at 37° C. The ELISA strips were washed 5 times with PBST, and patted and dried on absorbent paper to remove residual droplets as much as possible. 100 μl of TMB (eBioscience, #85-00-420) was added to each well, and the ELISA strips were held for 1.5 min at room temperature (20±5° C.) in the dark. 100 μl of 2N H₂SO₄ stop solution was added to each well to terminate substrate reaction. The OD value was read at 450 nm by a microplate reader to analyze the binding ability of antibodies to the proteins.

B1: antibody 6G12M11 (antibody, human IgG1, kappa, V domains shown)
VH: QVQLVQSGPGLVKPSQSLSLTCAVTGFSISSGYYWNWIRQFPGQKLEWMGYRSYDGSNNYNPSLKNRISITRDTSKNQFFLKLNSVTSEDTATYYCARGWLLHYTMDYWGQGTTVTVSS
VL: EIVMTQSPSSVSVTLGQSASISCRSSRSLLHSNGFTYLYWYLQKPGQSPQLLIYQMSNLASGVPDRFSGSGSGTDFTLKISRVEAEDVGVYYCGQNLELPLTFGGGTKLEIKR
**Q.** Does B1 bind?
**A.** no binding (tested: about 1 µg/mL)

Reference: patent US20220411531A1 (SUMGEN MAB BEIJING BIOTECH, published 2022)
